Experimental data reported in paper PMC11850899 (Communications Biology, 2025).
Numbering of substitutions follows the chain as printed. In names and notes the source's numbering stands. Where two headings read alike, the source gives them in different places.

B1: Bacillus subtilis DSR2 (defense-associated sirtuin 2), wild type (enzyme)
chain: MVKVDLESKRYGEKLKEVFLMLDNNVVECIKEITESSRNGKLVFFVGAGVSTLSDYPQWWRLVDKYHEELYGSPKKGNYSSDEYLRIPQIFYNVKGEMAFDGILKDFFQVDKPTNPIHDKILAMNPAHVITTNYDNLIDTACWKRGKYFSVISAEEDVANATSSRYLLKVHGDFRKGFKGENVVLKEDDYLNYDQNYPLISNLMKTIIATHTIVFIGYGLGDYNINMLLNWVRKLQKDSFHKPFFIRTDPSPIENETLIYYENKGLRIIDAASLIDSNEYDYLERYSAVMDLLIESQENKFITKDDEVIDYIYGKISPLFALQYIRKIDLKHVFEYDYHFEVNGTVVRHKNKGFGYMERFFELKESCDERSKLSKKQYERFNALFNFFEKNGVICMAKDAGTLNTSIEINSLAYHGKYDVMKKFIEEQSVSIEDDYKKAFFLACLGRWEESYDLYSNIILNSIDESNGCVYYLSQINRYRIYQSITQAVTQFNGLGLLTFGRHYKPFTDEFLARIEREMTNFNIDDLFNGMPFEFQKKYKILEFLSDNQFLYDDTVKLFELTNKVRSEMSEGSYSFGMSSDIVVLLRLYDNLRFLYENCLWSVSFHEFHQYIRNSMSLLIEKAEYERTRDIDELGFSFFGKKSGFFMEYYDFVNISRHFKIDDIKNLERSCSIDKIRFGEQEKIEEYLVGIAEEITKQFSANGMNVVFYTQFISEAKAALYFAKYVKLSEEGLGKIVKALLFYFPERDLDIGKRYVWLERLTKCNELPKSIISIIDDFLVLQAEKHIDQNYSEVSSNGLYSRDYGALIKHFEKNFISKRLSEITLCLTQDKQKQIDFLFKLLPLLSTNAKSHLLSFKSVENINDLMNGIRIGLIDEFTPEHEELIIEYLETRKVNYIVEKEKGIQTFSSNDYMSTFGIWYFLEEINNSKMEEFIGMDDQYDFFVDPENFDYKKFIPSWLKNYNDKLLGKIAGNKHMKHHVIEVLKERVKNSNDKRYLEILMNYFI
B2: Bacillus subtilis DSR2 H171A (catalytic mutant) (enzyme, UniProt P0DXN8 1-1005, looked up)
chain: B1 chain with H171A

Experiments:
[1] = molecular target: the molecule itself; assay: cryo-EM structure
[2] = molecular target: the molecule itself; assay: cryo-EM structure; remark: listed apart in the source

Protein | stoichiometry N [1] | stoichiometry N [2]
B1 | 4 | –
B2 | – | 4
